Experimental findings from the supplement of paper PMC9170038 are described below.

This data set deals with MS2 coat protein. Briefly: apparent KD of MS2 coat protein; designed switch direction (-1 OFF switch, 1 ON switch): -1; higher = weaker reporter binding. An outline of the steps:
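Three titration conditions were used: no input, 200 uM small-molecule ligand, and an oligonucleotide input. In each, SNAP-549-labelled MS2 coat protein was raised from 0.7 or 1.5 nM, doubling, to 3 µM over designed RNA switches transcribed on Illumina chips by stalled E. coli RNA polymerase. Curve fits of normalised cluster fluorescence gave values whose per-design median over clusters is the apparent KD.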

Setting [1] is: Eterna round: R95, input ligand: microRNA oligo, concentration not stated.
Where [2] appears, read: Eterna round: R95, input ligand: FMN 200 uM.
[3] abbreviates: Eterna round: R95, input ligand: none.
Setting [4] is: input ligand: microRNA oligo, concentration not stated.

As for “UUUUAACAUGAGGAUCACCCAUGUGAGGAUAUCGUUUUUUUUAUUAAUAUUAAUAAAACGAGAAGGCACAUUUU [JMF 18] (puzzle: Exclusion 1)”, under setting [1], the “apparent KD of MS2 coat protein” value stood at 140 nM.

As to “CCGUAACAUGAGGAUCACCCAUGUCAGGAUAUUCCAAAAUCGUCGAAAGACGAUAACAGAAGAAGGGACAGUGG [Fiskxlusion 5 - Jieux - Exclusion 1] (Eterna round: R97, puzzle: Exclusion 1)”, the “apparent KD of MS2 coat protein” value (input ligand: FMN 200 uM) is 104 nM and the “apparent KD of MS2 coat protein” value (input ligand: none) stood at 111 nM.

Consider “GUUUUCAGACGGAGAUCCUACAUGAGGAUCACCCAUGUCUCUCUUGCUAAUUGCUCGUCUUUUCCUCCUCUGUUCUC [Elimod 35 - Jieux - Sensor, turn-off variant 1] (Eterna round: R97, puzzle: Sensor, turn-off variant 1)”, for which the “apparent KD of MS2 coat protein” value by setting is: (input ligand: FMN 200 uM) 457 nM; (input ligand: none) 567 nM.

As for “UCAUGUUUAGAGGAUAUGAUUACUUUUGAGUAAUCAGAAGGCUAGACAUGAGGAUCACCCAUGUCAUAACAUGA [Exclusion 6 - B - 15:d] (puzzle: Exclusion 6)”, the “apparent KD of MS2 coat protein” value under setting [1] stood at 71.5 nM.

Take “AGUAGAUCUACGCUUGCGUGGAUCUGCUAUGCAGGUGUUACAUGAGGAUCACCCAUGUCCUCAUUUGCUCGUCUUAU [JL turnoff v2 99.14] (puzzle: Sensor v3, turn-off variant 2)”: the “apparent KD of MS2 coat protein” value stood at 133 nM under setting [2], 356 nM under setting [1] and 138 nM under setting [3].

As to “UCUGGAGCAGGAUAUAUAUGACGUGCUUCGGCACGAAGGUCACAUGAGGAUCACCCAUGUAGAAGGGCUCCAGA [E2/9-D2] (Eterna round: R97, puzzle: Exclusion 2)”, the “apparent KD of MS2 coat protein” value is, setting by setting: (input ligand: FMN 200 uM) 344 nM; (input ligand: none) 43.6 nM.

Take “GUCAGCUCGUGAGGAUAUACAUGCGUGCUUCGGCACGUAUGAUAGAUCACAUGAGGAUCACCCAUGUAGAAGGUACGAGCUGAU [ENG2/4-C2] (Eterna round: R96, puzzle: Exclusion NG 2)”: the “apparent KD of MS2 coat protein” value by setting is: (input ligand: FMN 200 uM) 14.9 nM; under setting [4], 10.8 nM; (input ligand: none) 15.2 nM.

“CUGUUUUUCGCAGGAUAUGCUUCUCCUUUAUUAGCAGAAGGGCGUUAAACAUGAGGAUCACCCAUGUAUGGUAAUGAUAUUUUC [JR_ExcNG1_Sub060] (Eterna round: R96, puzzle: Exclusion NG 1)”: the “apparent KD of MS2 coat protein” value was determined as 145 nM (input ligand: FMN 200 uM), 52.3 nM under setting [4] and 55.8 nM (input ligand: none).

For “ACUCAGUGAGGAUAUCGCCAGAGAGCCACAACGGCCUCUGAUGAGAAGGCACAUGAGGAUCACCCAUGUAAGCA [EX4 C.2] (Eterna round: R97, puzzle: Exclusion 4)”, the “apparent KD of MS2 coat protein” value runs as follows: (input ligand: FMN 200 uM) 45.4 nM; (input ligand: none) 252 nM.

Regarding “UUUAAUUUUUUUUUUUUACAAGCUUUUUGCUCGUCUUAUACAUGAGGAUCACCCAUGUGAAUGGGAGAUAAAUUAUC [JMF 18] (puzzle: Sensor v3, turn-off variant 2)”, the “apparent KD of MS2 coat protein” value by setting is: under setting [2], 356 nM; under setting [1], 508 nM; under setting [3], 456 nM.

With “UUUUCUUUUGUGAGGAUAUACUUGUUUUUUUUUUUGUAGAAGGCACAUGAGGAUCACCCAUGUUUUCUUUCCUG [JR_BME4_Sub025] (puzzle: Brourd's mod of Exclusion 4)”, under setting [1], the “apparent KD of MS2 coat protein” value is 20.1 nM.

On to “UAUAAAACAUAGGAUAUCGAAUAUAUCAUUUAACGAGAAGGAUGAACAUGAGGAUCACCCAUGUGGUAUCAUGG [Mat - Exclusion 6 - JL Mod - D8] (puzzle: Exclusion 6)”, for which the “apparent KD of MS2 coat protein” value under setting [2] was 286 nM, the “apparent KD of MS2 coat protein” value under setting [1] is 262 nM and the “apparent KD of MS2 coat protein” value under setting [3] came out at 172 nM.

For “AGCUGUGGCCGAGGAUAUCUAUCCAAAAUAACCGAAAUAUAAUCGGACAUGAGGAUCACCCAUGUAGAGAAGGCGGUCUCAGCA [Eli eng2 - 087] (Eterna round: R96, puzzle: Exclusion NG 2)”, under setting [4], the “apparent KD of MS2 coat protein” value worked out at 18.6 nM.

“CUUGAGUGACAAGCUUUUUGCUCGUCUGUUAUUGAUGCUACAUGAGGAUCACCCAUGUUUAAGAUGUGUGAGGAUGG [JR_SV3TOV2_Sub054] (puzzle: Sensor v3, turn-off variant 2)”: the “apparent KD of MS2 coat protein” value under setting [2] was found to be 36.7 nM, the “apparent KD of MS2 coat protein” value under setting [1] came out at 48.9 nM and the “apparent KD of MS2 coat protein” value under setting [3] was 35.6 nM.

As for “CUUGUUUAUGUAGGAUAUGCCUGGCGUGCCUUUGCAGAAGGACAUGAGGAUCACCCAUGUAACAUGAGGCUAACCCUUGUCGCC [salish99_ExNG1_r04_118] (Eterna round: R96, puzzle: Exclusion NG 1)”, the “apparent KD of MS2 coat protein” value worked out at 86.7 nM (input ligand: FMN 200 uM), 65.7 nM under setting [4] and 96 nM (input ligand: none).

In the case of “CUGAGCAGACGGAGAUCCAACAUGAGGAUCACCCAUGUCUCAAAAGCUUUUUGCUCGUCUUAUUCUCCUCUGUUCUC [Ainre] (puzzle: Sensor v3, turn-off variant 1)”, the “apparent KD of MS2 coat protein” value reads like this: under setting [2], 14.3 nM; under setting [1], 33.3 nM; under setting [3], 12.5 nM.

In the case of “ACGUGAUAUCUGUCGGUGGACAUGAGGAUCACCCAUGUAAGCUUUUUGCCCGUCUUAUAACCCGGUGACAGACCUUC [Orlequla] (puzzle: Sensor v3, turn-off variant 1)”, the “apparent KD of MS2 coat protein” value amounted to 32.4 nM under setting [2], 340 nM under setting [1] and 53.6 nM under setting [3].

Regarding “AGUCGAAAGACAAAAACAGACAUGAGGAUCACCCAUGUAAAGGGUGAACAAGCCACCCGCUCGUCUUAAAAAAAAAA [Mat - Sensor v2 - JL mod - D25] (Eterna round: R96, puzzle: Sensor v2, turn-off variant)”, the “apparent KD of MS2 coat protein” value (input ligand: FMN 200 uM) was 136 nM, the “apparent KD of MS2 coat protein” value under setting [4] stood at 69.2 nM and the “apparent KD of MS2 coat protein” value (input ligand: none) was 114 nM.

On to “ACAUGAGGAUCACCCAUGUGCACGUAAUGGCUCAUGUAGAGUGAGGAUAUGCGUGGCGAACUCGCGCAGAAGGCACAAGACUGG [Deportation 19 - Jieux - Exclusion NG 3] (Eterna round: R96, puzzle: Exclusion NG 3)”, for which the “apparent KD of MS2 coat protein” value by setting is: (input ligand: FMN 200 uM) 88.8 nM; under setting [4], 65.9 nM; (input ligand: none) 82.5 nM.

For “CUGUACUGAGGAUAUACAUGAGGAUCACCCAUGUGCUUCAGCUAGGAAACUAGCAAAGGUAGAAGGCAGUACAG [Mat - Exclusion 3 - Eli Mod - D58] (Eterna round: R97, puzzle: Exclusion 3)”, the “apparent KD of MS2 coat protein” value reads like this: (input ligand: FMN 200 uM) 109 nM; (input ligand: none) 14.5 nM.

“AAAGCUGCAGGAUAUGCAUGUGUGGACAUGAGGAUCACCCAUGUGAGCGUAUCAUGUCGAGCAGAAGGGCAGUAAA [Atquer] (Eterna round: R97, puzzle: Exclusion 5)”: the “apparent KD of MS2 coat protein” value runs as follows: (input ligand: FMN 200 uM) 172 nM; (input ligand: none) 630 nM.

On to “ACAAGCUUUUAGAUUCUUAACAUGAGGAUCACCCAUGUGCUCGUCUUAUUGGGCCCGGGCCCGCCGGGCCCGGGCCC (Eterna round: R97, puzzle: Sensor, turn-off variant 1)”, for which the “apparent KD of MS2 coat protein” value by setting is: (input ligand: FMN 200 uM) 39.2 nM; (input ligand: none) 42.6 nM.

On to “GGACGGAAAGUGAGGAUAUGCUCUACCUCGGUAGAGCAGAAGGCACAUGAGGAUCACCCAUGUGAAAACUGUUC [Omei Ex4B B30] (Eterna round: R97, puzzle: Brourd's mod of Exclusion 4)”, for which the “apparent KD of MS2 coat protein” value stood at 27.9 nM (input ligand: FMN 200 uM) and 15.2 nM (input ligand: none).

As to “AAAAAACAAGGAUAUACAAAAAAAAAAAGUGAAAAAAAACCACAUGAGGAUCACCCAUGUAGAAGGUGUAAAAA [JR_Exclusion2_Sub002] (puzzle: Exclusion 2)”, the “apparent KD of MS2 coat protein” value was 21.9 nM under setting [2], 37.1 nM under setting [1] and 51.1 nM under setting [3].

With “AGUACUAACACGAACGUGUUAGUACAAUAAGCUUGUGAAACAUGAGGAUCACCCAUGUCCUCAUAAGCUCGUCUUAU [salish99_TOv2_r3_034] (puzzle: Sensor v3, turn-off variant 2)”, the “apparent KD of MS2 coat protein” value runs as follows: under setting [2], 17.9 nM; under setting [1], 775 nM; under setting [3], 16.2 nM.

Consider “ACACUGCGAGGAUAUACAUGAGGAUCACCCAUGUAUCGGUAGACAAGGUUAAUUUAAGGUAGAAGGCGCGUAUU [JR_Ex3_Sub008] (Eterna round: R97, puzzle: Exclusion 3)”, for which the “apparent KD of MS2 coat protein” value is, setting by setting: (input ligand: FMN 200 uM) 36.9 nM; (input ligand: none) 29.1 nM.

With “GGUACUCAAAGAGUACCAAUACGAACAUGAGGAUCACCCAUGUAGGAUAUGCUACUCAAAGAGUAGCAGAAGGAUAUGAUCGAU [Far Half Aptamer v14] (Eterna round: R96, puzzle: Exclusion NG 3)”, the “apparent KD of MS2 coat protein” value reads like this: (input ligand: FMN 200 uM) 45.6 nM; under setting [4], 27.9 nM; (input ligand: none) 40.6 nM.

Consider “AUACUCGAAGGAUAUGUGUAAGAGUACAUGAGGAUCACCCAUGUCCUAAGCACUUGGACGGCAGAAGGUCGACUGU [Eternabot (L2) Solution 36] (Eterna round: R97, puzzle: Exclusion 5)”, for which the “apparent KD of MS2 coat protein” value was determined as 57.7 nM (input ligand: FMN 200 uM) and 25.1 nM (input ligand: none).

Turning to “CGUCGACAUGUAGGAUAUCUGCACGUUUAGUGCAGAGAAGGACAUGAGGAUCACCCAUGUAGAUCACGACGAAUUAAUUUAAUU [ENG1/6-C2] (Eterna round: R96, puzzle: Exclusion NG 1)”, the “apparent KD of MS2 coat protein” value runs as follows: (input ligand: FMN 200 uM) 24 nM; under setting [4], 205 nM; (input ligand: none) 1540 nM.

Regarding “AGCGAGGUAGGAUAUACAUGAGGAUCACCCAUGUGCUUGUAUGGCGUGGAACAUCGUAGUAGAAGGGCCGCGCC [EX3 #76] (Eterna round: R97, puzzle: Exclusion 3)”, the “apparent KD of MS2 coat protein” value worked out at 21.9 nM (input ligand: FMN 200 uM) and 20.9 nM (input ligand: none).
